From publication PMC6773438

Target: mononucleosomes reconstituted by salt dialysis with purified recombinant Drosophila core histones (Drosophila), P84051
Experiment: native gel or EMSA; gel mobility shift; 147 bp X. borealis 5S rDNA mononucleosomes (60 nM) with indicated amounts of Dsup; HEG buffer (25 mM Hepes K+, pH 7.6, 0.1 mM EDTA, 10% glycerol), 100 mM KCl, BSA; 30°C 30 min; nondenaturing 4.5% polyacrylamide gel at 4°C, ethidium bromide
Conditions: remark: other sources report otherwise

B1: Ramazzottius varieornatus damage suppressor protein (Rv Dsup), P0DOW4 1-445 (natural protein)
chain: MASTHQSSTEPSSTGKSEETKKDASQGSGQDSKNVTVTKGTGSSATSAAIVKTGGSQGKDSSTTAGSSSTQGQKFSTTPTDPKTFSSDQKEKSKSPAKEVPSGGDSKSQGDTKSQSDAKSSGQSQGQSKDSGKSSSDSSKSHSVIGAVKDVVAGAKDVAGKAVEDAPSIMHTAVDAVKNAATTVKDVASSAASTVAEKVVDAYHSVVGDKTDDKKEGEHSGDKKDDSKAGSGSGQGGDNKKSEGETSGQAESSSGNEGAAPAKGRGRGRPPAAAKGVAKGAAKGAAASKGAKSGAESSKGGEQSSGDIEMADASSKGGSDQRDSAATVGEGGASGSEGGAKKGRGRGAGKKADAGDTSAEPPRRSSRLTSSGTGAGSAPAAAKGGAKRAASSSSTPSNAKKQATGGAGKAAATKATAAKSAASKAPQNGAGAKKKGGKAGGRKRK
  stoichiometry N (molecules of Rv Dsup per nucleosome): 2
